Assay results published in patent US20130011375A1 (published 2013).

Legend:
[1] = biological target: T1, HCV NS5 peptide on HLA-A*02:01 (human); assay: cytokine release
T1 peptide: VLTDFKTWL

[2] = biological target: T2, HCV NS3 (genotype 1a) peptide on HLA-A*02:01 (human); assay: multimer staining
T2 peptide: CINGVCWTV

[3] = biological target: T3, HCV NS3 peptide on HLA-A*02:01 (human); assay: cytokine release
T3 peptide: KLVALGINAV

[4] = biological target: T4, Flu neuraminidase (Flu-NA231) peptide on HLA-A*02:01 (human); assay: cytokine release
T4 peptide: CVNGSCFTV

[5] = biological target: T5, HCMV pp65 (pp65 495) peptide on HLA-A*02:01 (human); assay: cytokine release
T5 peptide: NLVPMVATV

[6] = biological target: T6, HCV NS3 1073 (genotype 4) peptide on HLA-A*02:01 (human); assay: cytokine release
T6 peptide: AVNGVMWTV

[7] = biological target: T7, HCV NS3 1073-1081, alanine analogue 1080-Ala (position 8) peptide on HLA-A*02:01 (human); assay: cytokine release
T7 peptide: CINGVCWAV

[8] = biological target: T8, HCV NS3 1073-1081, alanine analogue 1074-Ala (position 2) peptide on HLA-A*02:01 (human); assay: cytokine release
T8 peptide: CANGVCWTV

[9] = biological target: T9, HCV NS3 (genotype 1a) peptide on HLA-A*02:01 (human/mouse chimera); assay: cytokine release
T9 peptide: CINGVCWTV

[10] = biological target: T10, HCV NS5 (NS5 2221) peptide on HLA-A*02:01 (human); assay: cytokine release
T10 peptide: SPDADLIEANL

[11] = biological target: T11, HCV NS3 1073-1081, alanine analogue 1073-Ala (position 1) peptide on HLA-A*02:01 (human); assay: cytokine release
T11 peptide: AINGVCWTV

[12] = biological target: T12, HCV NS3 1073-1081, alanine analogue 1078-Ala (position 6) peptide on HLA-A*02:01 (human); assay: cytokine release
T12 peptide: CINGVAWTV

[13] = biological target: T13, HCV NS3 1073 (genotype 6) peptide on HLA-A*02:01 (human); assay: cytokine release
T13 peptide: AINGVMWTV

[14] = biological target: T14, HCV NS3 1073 (genotype 3) peptide on HLA-A*02:01 (human); assay: cytokine release
T14 peptide: TIGGVMWTV

[15] = biological target: T15, HCV NS3 1073 (genotype 2) peptide on HLA-A*02:01 (human); assay: cytokine release
T15 peptide: TISGVLWTV

[16] = biological target: T16, HCV NS3 (genotype 1b) peptide on HLA-A*02:01 (human); assay: cytokine release
T16 peptide: CVNGVCWTV

[17] = biological target: T17, HCV NS3 1073 (genotype 5) peptide on HLA-A*02:01 (human); assay: cytokine release
T17 peptide: CINGVMWTV

[18] = biological target: T18, HCV NS3 1073-1081, alanine analogue 1081-Ala (position 9) peptide on HLA-A*02:01 (human); assay: cytokine release
T18 peptide: CINGVCWTA

[19] = biological target: T2, HCV NS3 (genotype 1a) peptide on …; assay: T cell clone or line
[20] = biological target: T8, HCV NS3 1073-1081, alanine analogue …; assay: T cell clone or line

B1: TCR-19 (TCR, V domains shown)
Valpha: GEKVEQHQSTLSVREGDSAVINCTYTDTASSYFPWYKQEAGKSLHFVIDIRSNVDRKQSQRLTVLLDKKAKRFSLHITATQPEDSAIYFCAASLITGNTGKLIFGLGTTLQVQP
Vbeta: GGIITQTPKFLIGQEGQKLTLKCQQNFNHDTMYWYRQDSGKGLRLIYYSITENDLQKGDLSEGYDASREKKSSFSLTVTSAQKNEMAVFLCASSLTANTEVFFGKGTRLTVV
Does B1 bind [1]?
Result: recognises

B2: TCR-69 (TCR, V domains shown)
Valpha: LAKTTQPPSMEAYEGQEVNVSCSHTNIATSEYIYWYRQVPHQGPQFIIQGYKDYVVNEVASLFISADRKLSTLSLPWVSLRDAAVYYCIVTDLGITGNTGKLIFGLGTTLQVQP
Vbeta: EAAVTQSPRNKVAVTGGKVTLSCNQTNNHNNMYWYRQDTGHGLRLIHYSYGAGSTEKGDIPDGYKASRPSQENFSLILELATPSQTSVYFCASGDEGYNSPLYFAAGTRLTVT
Does B2 bind [1]?
Result: recognises

B3: I8H4 (TCR, V domains shown)
Valpha: AQKVTQTQTSISVVEKTTVTMDCVYETRDSSYFLFWYKQTASGEIVFLIRQDSYKKENATVGHYSLNFQKPKSSIGLIITATQIEDSAVYFCAMREITGNTGKLIFGLGTTLQVQP
Vbeta: EAAVTQSPRNKVTVTGGNVTLSCRQTNSHNYMYWYRQDTGHGLRLIHYSYGAGNLRIGDVPDGYKATRTTQEDFFLLLELASPSQTSLYFCASSDALGGEDAEQFFGPGTRLTVL
Does B3 bind [2]?
Result: recognises

Does B3 bind [3]?
Result: no recognition

Does B3 bind [4]?
Result: no recognition

Does B3 bind [1]?
Result: no recognition

Does B3 bind [5]?
Result: no recognition

Does B3 bind [6]?
Result: no recognition

Does B3 bind [7]?
Result: recognises

Does B3 bind [8]?
Result: recognises

Does B3 bind [9]?
Result: recognises

Does B3 bind [10]?
Result: no recognition

Does B3 bind [11]?
Result: recognises

Does B3 bind [12]?
Result: recognises

Does B3 bind [13]?
Result: no recognition

Does B3 bind [14]?
Result: no recognition

Does B3 bind [15]?
Result: no recognition

Does B3 bind [16]?
Result: recognises

Does B3 bind [17]?
Result: no recognition

Does B3 bind [18]?
Result: recognises

B4: I8A4 (TCR, V domains shown)
Valpha: LAKTTQPPSMEAYEGQEVNVSCSHTNIATSEYIYWYRQVPHQGPQFIIQGYKDYVVNEVASLFISADRKLSTLSLPWVSLRDAAVYYCIVTDMETGGYKVVFGSGTRLLVSP
Vbeta: EAAVTQSPRNKVAVTGGKVTLSCNQTNNHNNMYWYRQDTGHGLRLIHYSYGAGSTEKGDIPDGYKASRPSQENFSLILELATPSQTSVYFCASASTGASSYEQYFGPGTRLTVL
With B4 as the binder, how does the EC50 of peptide [19] read?
Its EC50 of peptide is no more than 0.4 µg/mL.

Does B4 bind [3]?
Result: no recognition

Does B4 bind [4]?
Result: no recognition

Does B4 bind [1]?
Result: no recognition

Does B4 bind [5]?
Result: no recognition

Does B4 bind [6]?
Result: no recognition

Does B4 bind [10]?
Result: no recognition

Does B4 bind [11]?
Result: recognises

Does B4 bind [13]?
Result: no recognition

Does B4 bind [14]?
Result: no recognition

Does B4 bind [15]?
Result: no recognition

Does B4 bind [16]?
Result: recognises

Does B4 bind [17]?
Result: no recognition

B5: I4G7 alpha chain with I4G7 beta chain1 (TCR, V domains shown)
Valpha: AQSVTQPDARVTVSEGASLQLRCKYSYFGTPYRIEFSGREFALLFWYVQYPRQGLQLLLKYYPGDPVVQGVNGFEAEFSKSNSSFHLRKASVHWSDWAVYFCAVSRDTNTGKLTFGDGTVLTVKP
Vbeta: EAAVTQSPRNKVAVTGGKVTLSCNQTNNHNNMGELNLAAANSPLYWYRQDTGHGLRLIHYSYVADSTEKGDIPDGYKASRPSQENFSLILELASLSQTAVYFCASSGGLGGHTLYFGAGTRLSVL
For B5, which “peptide concentration at which reactive” value [19] is on record?
The value was less than 100 ng/mL.

And the EC50 of peptide [20]?
The EC50 of peptide was 0.08 µg/mL.

Does B5 bind [3]?
Result: no recognition

Does B5 bind [4]?
Result: no recognition

Does B5 bind [1]?
Result: no recognition

Does B5 bind [5]?
Result: no recognition

Does B5 bind [6]?
Result: no recognition

Does B5 bind [7]?
Result: recognises

Does B5 bind [10]?
Result: no recognition

Does B5 bind [11]?
Result: recognises

Does B5 bind [12]?
Result: recognises

Does B5 bind [13]?
Result: no recognition

Does B5 bind [14]?
Result: no recognition

Does B5 bind [15]?
Result: no recognition

Does B5 bind [16]?
Result: recognises

Does B5 bind [17]?
Result: no recognition

Does B5 bind [18]?
Result: recognises

B6: I4F8 (TCR, V domains shown)
Valpha: AQSVTQPDARVTVSEGASLQLRCKYSYFGTPYLFWYVQYPRQGLQLLLKYYPGDPVVQGVNGFEAEFSKSNSSFHLRKASVHWSDWAVYFCAVSNMGYKLTFGTGTSLLVDP
Vbeta: DPKIIQKPKYLVAVTGSEKILICEQYLGHNAMYWYRQSAKKPLEFMFSYSYQKLMDNQTASSRFQPQSSKKNHLDLQITALKPDDSATYFCASSQEMGGALEQYFGPGTRLTVL
Which “peptide concentration at which reactive” value [19] does the source give for B6 here?
Its value is less than 100 ng/mL.

Does B6 bind [3]?
Result: no recognition

Does B6 bind [4]?
Result: no recognition

Does B6 bind [1]?
Result: no recognition

Does B6 bind [5]?
Result: no recognition

Does B6 bind [6]?
Result: no recognition

Does B6 bind [7]?
Result: recognises

Does B6 bind [8]?
Result: recognises

Does B6 bind [10]?
Result: no recognition

Does B6 bind [11]?
Result: recognises

Does B6 bind [12]?
Result: recognises

Does B6 bind [13]?
Result: no recognition

Does B6 bind [14]?
Result: no recognition

Does B6 bind [15]?
Result: no recognition

Does B6 bind [16]?
Result: recognises

Does B6 bind [17]?
Result: no recognition

Does B6 bind [18]?
Result: recognises

B7: I4G7 alpha chain with I4G7 beta chain2 (TCR, V domains shown)
Valpha: AQSVTQPDARVTVSEGASLQLRCKYSYFGTPYLFWYVQYPRQGLQLLLKYYPGDPVVQGVNGFEAEFSKSNSSFHLRKASVHWSDWAVYFCAVSRDTNTGKLTFGDGTVLTVKP
Vbeta: EAAVTQSPRNKVTVTGGNVTLSCRQTNSHNYMYWYRQDTGHGLRLIHYSYGAGNLRIGDVPDGYKATRTTQEDFFLLLELASPSQTSLYFCASSDYRDSGNTLYFGEGSRLIVV
For B7, which “peptide concentration at which reactive” value [19] is on record?
The value was less than 100 ng/mL.

What about the EC50 of peptide [20] of the same binder?
Its EC50 of peptide is 0.08 µg/mL.

Does B7 bind [3]?
Result: no recognition

Does B7 bind [4]?
Result: no recognition

Does B7 bind [1]?
Result: no recognition

Does B7 bind [5]?
Result: no recognition

Does B7 bind [6]?
Result: no recognition

Does B7 bind [7]?
Result: recognises

Does B7 bind [10]?
Result: no recognition

Does B7 bind [11]?
Result: recognises

Does B7 bind [12]?
Result: recognises

Does B7 bind [13]?
Result: no recognition

Does B7 bind [14]?
Result: no recognition

Does B7 bind [15]?
Result: no recognition

Does B7 bind [16]?
Result: recognises

Does B7 bind [17]?
Result: no recognition

Does B7 bind [18]?
Result: recognises
